# Measured values: patent US20240043551A1 (ADLAI NORTYE BIOPHARMA, published 2024)
# T1: rat TNFR2 (R&D systems, 8348-R2-050) (rat, UniProt Q80WY6 23-258)
# T1 construct: Bought protein
# T1 sequence (looked up): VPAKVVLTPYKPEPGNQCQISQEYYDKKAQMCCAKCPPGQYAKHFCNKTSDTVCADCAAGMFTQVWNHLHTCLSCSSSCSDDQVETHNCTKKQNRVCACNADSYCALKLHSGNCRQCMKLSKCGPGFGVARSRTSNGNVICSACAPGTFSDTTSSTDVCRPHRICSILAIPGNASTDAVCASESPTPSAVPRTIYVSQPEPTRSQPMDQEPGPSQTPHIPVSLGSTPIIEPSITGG
# T2: Full length human TNFR2 on Jurkat E6-1 cells (Clone NO.3) (human, UniProt P20333 23-461)
# T2 construct: whole, on cells; also called human TNFR2+ Jurkat cells; hTNFR2 Jurkat
# T2 sequence (looked up): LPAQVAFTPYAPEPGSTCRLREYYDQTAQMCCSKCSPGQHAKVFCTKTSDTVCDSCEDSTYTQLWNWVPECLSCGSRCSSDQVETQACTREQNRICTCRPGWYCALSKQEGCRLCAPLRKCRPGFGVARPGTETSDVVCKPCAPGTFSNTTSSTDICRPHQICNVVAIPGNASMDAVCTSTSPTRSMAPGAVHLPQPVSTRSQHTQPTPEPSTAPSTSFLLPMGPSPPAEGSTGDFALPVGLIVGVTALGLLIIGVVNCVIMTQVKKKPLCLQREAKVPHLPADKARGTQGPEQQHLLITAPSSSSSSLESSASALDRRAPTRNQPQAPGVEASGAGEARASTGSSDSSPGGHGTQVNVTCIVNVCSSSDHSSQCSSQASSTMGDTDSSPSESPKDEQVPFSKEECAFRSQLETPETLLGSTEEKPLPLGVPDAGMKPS
# T3: His tagged human TNFR2 ECD (Acro Biosystem, TN2-H5227) (human, UniProt P20333 23-257)
# T3 construct: extracellular domain; Bought protein; also called TNFR2-His; hTNFR2-His; not shown: His tag
# T3 sequence (looked up): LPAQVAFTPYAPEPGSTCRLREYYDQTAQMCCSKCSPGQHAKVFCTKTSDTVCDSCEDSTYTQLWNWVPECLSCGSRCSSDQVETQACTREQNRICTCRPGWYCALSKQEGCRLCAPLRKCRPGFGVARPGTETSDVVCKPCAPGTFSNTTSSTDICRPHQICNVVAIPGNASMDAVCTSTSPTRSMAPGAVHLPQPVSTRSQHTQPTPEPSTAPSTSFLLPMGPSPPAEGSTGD
# T4: Human TNFR1 (Acro Biosystem, TN1-H5222) (human, UniProt P19438 30-211)
# T4 construct: Bought protein; also called TNF receptor type 1; CD120a
# T4 sequence (looked up): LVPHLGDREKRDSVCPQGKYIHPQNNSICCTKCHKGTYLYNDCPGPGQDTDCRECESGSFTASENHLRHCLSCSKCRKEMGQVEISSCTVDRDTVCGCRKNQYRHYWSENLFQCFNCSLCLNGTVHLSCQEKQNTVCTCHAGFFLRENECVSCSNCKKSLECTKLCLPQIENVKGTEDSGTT
# T5: mouse TNFR2 (R&D systems, 426-R2-050/CF) (mouse, UniProt P25119 23-258)
# T5 construct: Bought protein
# T5 sequence (looked up): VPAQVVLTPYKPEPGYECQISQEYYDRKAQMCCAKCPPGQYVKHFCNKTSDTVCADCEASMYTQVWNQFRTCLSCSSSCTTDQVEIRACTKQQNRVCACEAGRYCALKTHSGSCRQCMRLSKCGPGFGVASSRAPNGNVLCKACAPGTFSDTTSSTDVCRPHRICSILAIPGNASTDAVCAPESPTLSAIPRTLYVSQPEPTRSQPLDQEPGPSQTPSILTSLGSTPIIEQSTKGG
# How the values were obtained:
# [1] = target: T1, rat TNFR2 (R&D systems, 8348-R2-050); assay: ELISA, receptor coated at 1 µg/ml
# Description: Plates were incubated at 4° C. overnight. Antibodies was titrated from 100 μg/ml in a 5-fold dilution series, and distributed 100 μL, per well and incubated at 37° C. for 1 hour. Human IgG1 isotype control (BioxCell, BE0297) was used as negative control. TNFR2 Polyclonal Antibody (Invitrogen, PAS-80159) and HRP conjugated Goat anti-Rabbit IgG Fc Secondary Antibody (Invitrogen, A16116) were used as positive control for rat TNFR2 detection.
# [2] = target: T2, Full length human TNFR2 on Jurkat E6-1 …; assay: FACS on human TNFR2+ Jurkat Clone No.3, biotinylated antibody with streptavidin-PE
# Description: FACS analysis was used to evaluate the binding of purified anti-TNFR2 antibody candidates produced from example 6 to cell surface TNFR2 target. Anti-human TNFR2 antibodies and negative control IgG were biotinylated using a EZ-Link™ Micro Sulfo-NHS-Biotinylation Kit (Thermo Fisher Scientific, 21925) according to manufacturer's instructions. Biotinylated antibodies (100 μg/mL) were then incubated with Halt™ Protease Inhibitor Cocktail (100X, Thermo Scientific, 1862209) and 80 μg/mL Streptavidin-R-Phycoerythrin (PE) conjugate (Invitrogen, S21388). Antibodies were stored at 4° C. until use. 5×10⁵ Clone No.3 of human TNFR2⁺ Jurkat cells were distributed each well and blocked with human TruStain FcX™ (Biolegend, 422302) for 10 minutes at room temperature before stained with a serially diluted PE conjugated anti-human TNFR2 antibodies or hIgG1 starting from 50 μg/mL in a 5-fold dilution fashion for 30 minutes at 4° C. PE-anti hTNFR2 (Clone MR2-1, Thermo fisher #TNFR7504) was used as positive control. The geometric mean fluorescent intensity was measured on Sony SA3800 cell analyzer. Data were analyzed using Flowjo Software (Tree star Inc).
# [3] = target: T3, His tagged human TNFR2 ECD (Acro …); assay: ELISA, TNFR2-His coated, antibody 0.006 and 0.06 µg/well
# [4] = target: T4, Human TNFR1 (Acro Biosystem, TN1-H5222); assay: ELISA, receptor coated at 1 µg/mL
# Description: (§1) Human TNFR2 (Acro Biosystem, TN2-H5227), Human TNFR1 (Acro Biosystem, TN1-H5222), Cynomolgus TNFR2 (Sino Biological, 90102-CO8H) or mouse TNFR2 (R&D systems, 426-R2-050/CF) was coated on high binding polystyrene flat bottom micro-titer plates (Thermo Scientific, 3455) in PBS (PH=7.4, Gibco,10010-031) at 1 μg/mL and 100 μL per well. Plates were incubated at 4° C. overnight.
# (§2) Plates were warmed up to room temperature the next day and washed with 200 μL PBS containing 0.1% Tween 20 (Life technologies, 003005) per well for 3 times. Plates were blocked with 200 μL PBS buffer containing 1% BSA (Fisher Scientific, BP1600-100) per well for 1 hour at 37° C. Antibodies was titrated from 5 μg/mL in a 5-fold dilution series, distributed 100 μL per well and incubated at 37° C. for 1 hour. Human IgG1 isotype control (BioxCell, BE0297) was used as negative control. Plates were washed with 200 μL PBS containing 0.1% Tween 20 (Life technologies, 003005) per well for 3 times. Goat anti-Human IgG Fc Secondary Antibody-HRP conjugate (Invitrogen, A18817) were distributed at 0.5μg/mL and 100 μL per well to detect bound antibodies. After 1-hour incubation of secondary antibody at 37° C., plates were washed with 200 μL PBS containing 0.1% Tween 20 (Life technologies, 003005) per well for 3 times. Plates were developed using TMB Substrate Solution (eBioscience, 00-4201-56) and stopped with ELISA stop solution (Invitrogen, SSO4). The level of bound antibodies was determined by reading absorbance at 450 nm. Mouse anti-human TNFR1 antibody (ThermoFisher Scientific, MA1-81005) and goat anti mouse IgG secondary antibody-HRP conjugate (Invitrogen, 62-5520) were used as positive control for human TNFR1 detection. Armenian Hamster anti-mouse TNFR2 antibody (InVivoMab, BE0247) and HRP-Goat anti-Armenian Hamster IgG (H+L) Secondary Antibody (Invitrogen, PA1-32045) were used as positive control for mouse TNFR2 detection.
# [5] = target: T5, mouse TNFR2 (R&D systems, 426-R2-050/CF); assay: ELISA, receptor coated at 1 µg/mL
# Description: as §1, §2
# [6] = target: T3, His tagged human TNFR2 ECD (Acro …); assay: monoclonal phage ELISA, hTNFR2-His coated, anti-M13-HRP
# Description: A 96-well ELISA plate was coated with hTNFR2-His and blocked with PBS buffer containing 2% BSA at […], of pre-blocked phage solution was added to the plate and incubated at 37° C. for 30 min. After the plate was washed twice with PBS buffer containing 0.05% Tween 20, phage binding was detected by HRP-conjugated anti-M13 antibody (GE Healthcare). Top binders were picked and the corresponding phagemids in TG1 cell were isolated and subjected to DNA sequencing to obtain VH/VL sequence. The sequences of TN1-36_VH and TN1-36_VL are set forth as SEQ ID NO: 1 and SEQ ID NO: 2, respectively. Antibody numbering and CDR annotation are performed according to IMGT scheme respectively.
Binder,binding result [1],binding result [2],binding result [3],binding result [4],binding result [5],binding result [6]
"TN36-2 (antibody, human IgG1, V domains shown, Humanized; also called AL2/AL8) VH: EVQLVESGGGLIQPGGSLRLSCAASGFSLSSSAVSWVRQAPGKGLEWIGAIGSGGTSYYSNWAKSRFTISRDNSKNTLYLQMNSLRAEDTAVYYCARDPNSSDYPYGAYGMGLWGRGTLVTVSS VL: DIQMTQSPSSLSASVGDRVTITCQVSQSISSYLSWYQQKPGKAPKLLIYYASTLASGVPSRFSGSGSGTDFTLTISSLQPEDFATYYCQQGYITSNVGNAFGGGTKVEIK",no binding (tested: titrated from 100 µg/ml),binds,binds,no binding (tested: titrated from 5 µg/mL),no binding (tested: titrated from 5 µg/mL),
"TN1-36 scFv on phage (scFv, V domains shown, also called TN1-36_VH/TN1-36_VL) VH: QQSVKESEGGLFKPTDTLTLTCTVSGFSLSSSAVSWVRQAPGNGLEWIGAIGSGGTSYYSNWAKSRSTITRDTNLNTVTLKMTSLTAADTATYFCARDPNSSDYPYGAYGMGLWGPGTLVTVSS VL: ELDLTQTPASVEVAAGGTVTINCQVSQSISSYLSWYQQKPGQPPKLLIYYASTLASGVPSRFSGSGSGTEFTLTISGVQCDDAATYYCQQGYITSNVGNAFGGGTEVVVK",,,,,,binds
